Assays:
[1] = target: T1, snRNP200 (endogenous, from THP-1 cells) (human, UniProt O75643 1-2136); experiment: immunoprecipitation from THP-1 membrane lysate, Western blot with mouse-anti-human snRNP200
T1 construct: also called U5-snRNP
Procedure: FIG. 20A. THP-1 membrane lysate was incubated with AT12-023 and AT13-031, with the influenza-specific antibody AT10-002 or with marker alone.
THP-1 cells were lysed and precleared with an irrelevant antibody (in-house generated RSV antibody D25) and beads to remove non specific binding proteins. Precleared lysate was then incubated with bead-labeled AML-specific antibodies or with the influenza specific antibody AT10-002 as a negative control (3 hrs at 4° C.). Antibody-incubated lysates were washed five times, bound proteins were eluted from the THP-1 lysate and then run on an SDS-PAGE gel. Proteins were blotted and stained with Ponseau S to reveal total protein. The blot was blocked with BSA and incubated with mouse-anti-snRNP200 (Millipore, clone 3B6.1) or Rabbit-anti-HMGB1 (Abcam) for Western blot analysis. Intracelllar staining for snRNP200 was performed after fixing and permeabilizing THP-1 cells with methanol (Sigma) and permeabilization buffer containing triton X-100 (Sigma), EDTA (Gibco) and BSA (Roche), followed by incubation with rabbit-anti-human snRNP200 antibody (Sigma) overnight at 4° C.

[2] = target: T2, snRNP200-flag construct (UniProt O75643 1-2136, limits assumed); experiment: capture ELISA: antibody coated, snRNP200-flag lysate (3 ug/ml) captured, anti-flag HRP detection
T2 construct: mature; Used as lysate at 3 ug/ml, not purified; also called full-length snRNP200 with an N-terminal FLAG tag; not shown: N-terminal FLAG tag
Procedure: FIG. 20B. AML specific antibodies AT12-019, AT12-023, AT13-031 and AT13-037 or commercially available snRNP200-specific antibodies snRNP200 453 and snRNP200 454 were coated on an ELISA plate, incubated with a snRNP200-flag construct for capturing and with anti-flag HRP for detection.
HEK 293T cells were transfected with an expression vector containing the full-length open reading frame of snRNP200 with an N-terminal FLAG tag. At 2 days after transfection cells were harvested and lysed in lysis buffer containing protease inhibitors. This lysate was cleared and protein concentration was measured. AML specific antibodies AT12-019, AT12-023, AT13-031 and AT13-037 or commercially available snRNP200 specific antibodies (Bethyl labs) were then coated on an ELISA plate. The lysate was added at a concentration of 3 μg/ml for capturing. After extensive washing, captured snRNP200-flag was detected with a monoclonal mouse anti-flag HRP antibody (Sigma-Aldrich, clone M2).

T1 sequence (O75643 whole entry): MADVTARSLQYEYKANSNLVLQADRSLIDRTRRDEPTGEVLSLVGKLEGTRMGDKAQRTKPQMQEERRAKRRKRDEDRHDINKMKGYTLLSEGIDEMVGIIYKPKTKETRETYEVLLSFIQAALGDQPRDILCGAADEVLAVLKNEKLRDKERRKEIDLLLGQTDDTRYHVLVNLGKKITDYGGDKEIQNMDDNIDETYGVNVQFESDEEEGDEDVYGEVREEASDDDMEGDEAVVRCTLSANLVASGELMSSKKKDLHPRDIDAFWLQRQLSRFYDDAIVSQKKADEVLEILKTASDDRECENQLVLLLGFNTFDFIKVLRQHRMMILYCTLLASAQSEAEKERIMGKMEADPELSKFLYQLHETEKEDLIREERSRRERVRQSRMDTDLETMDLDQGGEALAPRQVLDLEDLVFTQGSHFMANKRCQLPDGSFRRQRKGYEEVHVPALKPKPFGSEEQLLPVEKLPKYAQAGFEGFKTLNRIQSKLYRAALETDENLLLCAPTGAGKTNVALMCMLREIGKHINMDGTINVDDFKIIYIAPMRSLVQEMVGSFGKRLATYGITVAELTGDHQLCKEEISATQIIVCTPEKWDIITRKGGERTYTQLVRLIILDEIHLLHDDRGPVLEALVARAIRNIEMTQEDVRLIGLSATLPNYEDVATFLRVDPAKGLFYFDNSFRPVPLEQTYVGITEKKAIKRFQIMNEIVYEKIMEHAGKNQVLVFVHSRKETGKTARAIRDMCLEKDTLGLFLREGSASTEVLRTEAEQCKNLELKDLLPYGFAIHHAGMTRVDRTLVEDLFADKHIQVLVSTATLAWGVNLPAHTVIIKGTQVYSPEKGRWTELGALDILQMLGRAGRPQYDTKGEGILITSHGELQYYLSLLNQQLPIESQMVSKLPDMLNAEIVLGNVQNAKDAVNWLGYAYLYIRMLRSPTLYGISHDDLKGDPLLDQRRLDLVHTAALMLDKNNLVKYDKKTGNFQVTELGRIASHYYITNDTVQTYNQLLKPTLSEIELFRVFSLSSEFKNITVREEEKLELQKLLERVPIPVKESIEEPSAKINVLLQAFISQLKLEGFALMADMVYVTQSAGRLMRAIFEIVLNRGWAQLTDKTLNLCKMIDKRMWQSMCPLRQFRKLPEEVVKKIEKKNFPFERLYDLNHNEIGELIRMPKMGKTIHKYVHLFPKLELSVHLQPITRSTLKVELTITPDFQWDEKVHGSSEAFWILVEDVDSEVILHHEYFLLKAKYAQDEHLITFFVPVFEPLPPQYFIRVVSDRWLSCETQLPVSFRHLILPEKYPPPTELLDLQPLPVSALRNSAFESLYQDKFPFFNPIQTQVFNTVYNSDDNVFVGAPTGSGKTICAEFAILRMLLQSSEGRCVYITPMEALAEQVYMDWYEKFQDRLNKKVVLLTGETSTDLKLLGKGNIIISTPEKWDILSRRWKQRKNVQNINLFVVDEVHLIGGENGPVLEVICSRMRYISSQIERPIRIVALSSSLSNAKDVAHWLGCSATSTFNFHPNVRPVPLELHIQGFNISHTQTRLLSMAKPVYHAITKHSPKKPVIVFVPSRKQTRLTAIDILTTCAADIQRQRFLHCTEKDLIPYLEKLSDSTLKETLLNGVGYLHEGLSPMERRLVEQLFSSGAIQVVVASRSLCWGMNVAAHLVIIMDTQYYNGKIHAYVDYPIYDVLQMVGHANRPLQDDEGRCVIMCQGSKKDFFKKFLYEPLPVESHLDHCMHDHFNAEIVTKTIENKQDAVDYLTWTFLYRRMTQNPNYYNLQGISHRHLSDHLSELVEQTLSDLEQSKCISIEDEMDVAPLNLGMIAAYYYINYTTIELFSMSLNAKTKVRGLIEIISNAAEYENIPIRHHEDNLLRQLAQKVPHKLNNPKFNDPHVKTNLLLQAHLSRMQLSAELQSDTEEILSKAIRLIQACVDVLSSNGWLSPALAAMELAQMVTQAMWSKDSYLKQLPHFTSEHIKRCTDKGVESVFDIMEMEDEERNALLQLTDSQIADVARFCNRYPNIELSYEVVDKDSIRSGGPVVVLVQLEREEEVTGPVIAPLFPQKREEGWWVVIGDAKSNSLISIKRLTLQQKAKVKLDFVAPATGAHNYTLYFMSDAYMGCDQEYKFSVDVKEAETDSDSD
T2 sequence (O75643 whole entry): as above

B1: AT12-023 (antibody, V domains shown)
VH: QVQLQQWGAGLLKPSETLSLTCAVYGGSFSGYYWSWIRQPPGKGLEWIGEINHSGSTNYNPSLKSRVTISVDTSKNQFSLKLSSVTAADTAVYYCARGRSTSPLDYYYYYMDVWAKGTTVTVSS
VL: SSELTQDPAVSVALGQTVRITCQGDFLRSYYASWYQQKPGQAPVLVIFGKNKRPSGIPDRFSGSSSGNTASLTITGAQAEDEADYYCNSRDRSGNHLVFGGGTKLTVL
notes: Human antibody from AML patient donor 59; also called antibody AT12-023
[1]
  binding result: binds

B2: AT12-019 (antibody, IgG1, V domains shown)
VH: EVHLLESGGGLVQPGGSLRLSCAASGFTFSSYAMSWVRQAPGKGLEWVSTIRASGGSTSYADSVKGRFTISRDNSQSRLYLQMNSLTAEDTAVYYCAKSPAMIRGVRGGDYFDYWGQGTLVTVSS
VL: AIRLTQSPSSVSASTGDRVTITCRASQAFSSYLVWYQQKPGKAPNLLIYATSTLQGGVPSRFSGSGSGTDFTLTISNLQSEDFATYYCQQYYSYPPTFGQGTKLEIK
notes: Human antibody from AML patient donor 59; also called antibody AT12-019
[2]
  binding result: no binding
